According to IntAct's records for PubMed 30245403:

Molecular target: T1, prdx2_human PRDX2 (UniProt P32119)
T1 sequence: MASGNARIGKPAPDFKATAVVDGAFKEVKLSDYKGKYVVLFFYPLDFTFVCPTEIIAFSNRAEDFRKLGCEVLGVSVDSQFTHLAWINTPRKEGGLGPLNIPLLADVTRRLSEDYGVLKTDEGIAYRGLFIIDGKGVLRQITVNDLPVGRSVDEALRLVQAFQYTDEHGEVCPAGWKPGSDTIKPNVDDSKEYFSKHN

| Substance | effect of a mutation on the interaction |
| --- | --- |
| "DNA (cytosine-5)-methyltransferase 3A" (Homo sapiens) (from UniProt Q9Y6K1) R882C | with no effect |
| "DNA (cytosine-5)-methyltransferase 3A" (Homo sapiens) (from UniProt Q9Y6K1) R882H | increasing interaction strength |
